Results taken from patent US20030096275.

Molecular target: T1, ArsR (Escherichia coli) (UniProt P15905)
T1 sequence: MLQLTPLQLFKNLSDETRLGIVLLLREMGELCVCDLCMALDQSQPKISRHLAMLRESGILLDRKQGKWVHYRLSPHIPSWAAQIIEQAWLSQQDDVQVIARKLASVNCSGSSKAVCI
Test: SPR
Conditions: ±10 nM, HBS-EP pH 7.4, 25 C

[1] = one value stated for all sequences although affinities said to differ, binding inhibited about 55% by 100 uM phenylarsine oxide …
[2] = one value stated for all sequences

CTGCACTTACACATTCGTTAAGTCATATATGTTTTTGACTTA / TAAGTCAAAAACATATATGACTTAACGAATGTGTAAGTGC [CHROML1]
Kd [1]: 500 nM

TTAAGTCATATATGTTTTTGACTTA (double strand) [CHROMS1]
Kd [2]: 500 nM

TTAATCATATGCGTTTTTGGTTA / TAACCAAAAACGCATATGATT [PLASS1]
Kd [2]: 500 nM

TTAATCATATGCGTTTTTGGTTATGTGTTG / CAACACATAACCAAAAACGCATATGATT [PLASL1]
Kd [1]: 500 nM
